Measured values taken from ChEMBL document CHEMBL4342470, “Detection of Active Granzyme A in NK92 Cells with Fluorescent Activity-Based Probe” (J Med Chem, 2020).

Columns and labels:
Conditions in all cases: Homo sapiens; call rule not given here
[1] = substrate: CC(=O)N1Cc2ccccc2C[C@H]1C(=O)NCC(=O)N1C2CCCCC2C[C@H]1C(=O)N[C@@H](CCCNC(=N)N)C(=O)Nc1ccc2c(CC(N)=O)cc(=O)oc2c1; test: (§1) Substrate activity at Granzyme A (unknown origin) expressed in Pichia pastoris incubated for 30 mins by fluorescence based assay
[2] = substrate: CC[C@H](C)[C@H](NC(C)=O)C(=O)NCC(=O)N1CCC[C@H]1C(=O)N[C@@H](CCCNC(=N)N)C(=O)Nc1ccc2c(CC(N)=O)cc(=O)oc2c1; test: as §1
[3] = substrate: CC(=O)N1Cc2ccccc2C[C@H]1C(=O)NCC(=O)N1C2CCCCC2C[C@H]1C(=O)N[C@@H](CCCNC(=N)N)C(=O)Nc1ccc2c(CC(N)=O)cc(=O)oc2c1; test: Substrate activity at Granzyme K (unknown origin) expressed in Pichia pastoris incubated for 30 mins by fluorescence based assay

B1: Granzyme A (Homo sapiens), P12544 (protein)
chain: MRNSYRFLASSLSVVVSLLLIPEDVCEKIIGGNEVTPHSRPYMVLLSLDRKTICAGALIAKDWVLTAAHCNLNKRSQVILGAHSITREEPTKQIMLVKKEFPYPCYDPATREGDLKLLQLMEKAKINKYVTILHLPKKGDDVKPGTMCQVAGWGRTHNSASWSDTLREVNITIIDRKVCNDRNHYNFNPVIGMNMVCAGSLRGGRDSCNGDSGSPLLCEGVFRGVTSFGLENKCGDPRGPGVYILLSKKHLNWIIMTIKGAV
B1 gave a Km [1] of 87.4 µM, a kcat [1] of 0.27 s⁻¹ and a kcat/Km [1] of 3100 M⁻¹ s⁻¹. The Km [2] was 450 µM, the kcat [2] was 0.035 s⁻¹ and the kcat/Km [2] was 78 M⁻¹ s⁻¹.

B2: Granzyme K (Homo sapiens), P49863 (protein)
chain: MTKFSSFSLFFLIVGAYMTHVCFNMEIIGGKEVSPHSRPFMASIQYGGHHVCGGVLIDPQWVLTAAHCQYRFTKGQSPTVVLGAHSLSKNEASKQTLEIKKFIPFSRVTSDPQSNDIMLVKLQTAAKLNKHVKMLHIRSKTSLRSGTKCKVTGWGATDPDSLRPSDTLREVTVTVLSRKLCNSQSYYNGDPFITKDMVCAGDAKGQKDSCKGDSGGPLICKGVFHAIVSGGHECGVATKPGIYTLLTKKYQTWIKSNLVPPHTN
In the case of B2, the Km [3] is reported as “Not Active”, the kcat [3] is reported as “Not Active” and the kcat/Km [3] is reported as “Not Active”.
